From US20250382376A1 (FUDAN UNIVERSITY, published 2025)
Blank lines part the entries; values can stand above or below the binder they belong to.

What was measured:
[1] = target: T1, extracellular domain of human CD73 protein, C-terminus polyhistidine-tagged (human, UniProt P21589 27-547); test: ELISA on coated human CD73-ECD, HRP-protein A detection; fitted upper plateau of the OD450 curve; design: unit not given here
T1 construct: also the immunogen; also called CD73-ECD; human CD73-ECD
T1 sequence: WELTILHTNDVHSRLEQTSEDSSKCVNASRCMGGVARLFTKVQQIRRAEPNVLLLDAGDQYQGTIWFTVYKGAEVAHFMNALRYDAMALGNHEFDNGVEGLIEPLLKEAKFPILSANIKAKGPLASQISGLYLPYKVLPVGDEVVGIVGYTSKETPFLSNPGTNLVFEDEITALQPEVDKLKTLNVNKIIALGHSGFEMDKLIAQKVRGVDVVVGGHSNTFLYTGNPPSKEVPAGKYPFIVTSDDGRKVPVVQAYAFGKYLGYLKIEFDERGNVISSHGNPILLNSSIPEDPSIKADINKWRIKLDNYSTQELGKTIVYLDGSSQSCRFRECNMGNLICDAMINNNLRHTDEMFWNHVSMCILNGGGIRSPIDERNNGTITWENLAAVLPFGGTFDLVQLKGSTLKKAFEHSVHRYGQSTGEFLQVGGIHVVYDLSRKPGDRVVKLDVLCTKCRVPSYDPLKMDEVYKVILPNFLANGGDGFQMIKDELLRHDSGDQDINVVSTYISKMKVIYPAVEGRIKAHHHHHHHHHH
Protocol: (§1) The CD73 protein extracellular region (CD73-ECD) was diluted to 1 μg/mL using the coating solution, and an ELISA plate was coated at 100 μL/well at 4° C. overnight. Excess antigens were washed away, and the plate was blocked with 1% BSA at room temperature for 2 hours. Then, 5-fold gradient dilutions of each monoclonal antibody were added at 100 μL/well and incubated at room temperature for 1 hour. Unbound antibodies were washed away, and an appropriate concentration of Staphylococcal protein A labeled with horseradish peroxidase was added at 100 μL/well and incubated at room temperature for 0.5 hours. Unbound secondary antibodies were washed away, and TMB color development solution was added to react for about 15 minutes. 1M HCL was added at 50 µL/well to terminate the color development reaction, and then the absorbance was measured at 450 nm and the data was analyzed.

[2] = target: T2, CD73 on the surface of human cells (human, UniProt P21589 27-549); test: cell-based or functional assay
T2 sequence (looked up): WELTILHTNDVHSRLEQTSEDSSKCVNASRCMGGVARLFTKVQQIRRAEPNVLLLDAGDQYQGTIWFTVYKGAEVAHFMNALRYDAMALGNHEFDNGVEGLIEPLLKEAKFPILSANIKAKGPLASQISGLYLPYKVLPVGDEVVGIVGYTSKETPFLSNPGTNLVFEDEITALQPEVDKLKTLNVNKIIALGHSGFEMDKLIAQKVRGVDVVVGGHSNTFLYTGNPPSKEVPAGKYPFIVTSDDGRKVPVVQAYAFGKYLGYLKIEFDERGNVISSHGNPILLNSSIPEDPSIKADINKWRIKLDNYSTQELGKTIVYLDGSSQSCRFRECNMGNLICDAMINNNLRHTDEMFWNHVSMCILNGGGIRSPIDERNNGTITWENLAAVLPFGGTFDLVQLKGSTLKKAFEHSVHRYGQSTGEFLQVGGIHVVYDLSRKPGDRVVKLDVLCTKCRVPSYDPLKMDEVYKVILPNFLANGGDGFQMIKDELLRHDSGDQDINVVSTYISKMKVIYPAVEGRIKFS

[3] = target: T3, human recombinant CD73 enzyme (CD73 extracellular region) (human, UniProt P21589 27-549); test: cell-based or functional assay
T3 sequence (looked up): T2 sequence (looked up)

[4] = target: T2, CD73 on the surface of human cells; test: Flow cytometry on NCI-H1373 cells, PE-labelled secondary antibody [panel B]
Protocol: (§2) 100 μL of the test antibodies diluted from 10 μg/mL to 0.016 μg/mL in a 5-fold gradient were used as the primary antibodies, and were mixed with 1×10⁵ tumor cells suspended in 100 μL RPMI-1640 serum-free medium to make a final concentration of 5 μg/mL diluted to 0.008 μg/mL, and then incubated at 4° C. for 1 h. The cells were washed twice with PBS to remove unbound primary antibodies, and then the target cells were incubated with 200 μLPE-labeled secondary antibody at 2 μg/mL at 4° C. for 30 min. The cells were washed twice with PBS to remove unbound secondary antibodies, and finally the cells were resuspended in 200 μL PBS. The binding affinity of the test antibodies to CD73 on the surface of the corresponding cells was measured by flow cytometry.

[5] = target: T2, CD73 on the surface of human cells; test: flow cytometry on NCI-H1299 cells
[6] = target: T1, extracellular domain of human CD73 …; test: ELISA, coated CD73-ECD, protein A-HRP
Protocol: as §1

[7] = target: T1, extracellular domain of human CD73 …; test: ELISA on CD73-ECD, 100 µL supernatant of antibody expression, second of two readings; PBS 0.19, 0.18
[8] = target: T1, extracellular domain of human CD73 …; test: ELISA on CD73-ECD, 100 µL supernatant of antibody expression, first of two readings; PBS 0.19, 0.18
Protocol: as §1
CD73 antigen ELISA binding affinity test was performed according to the method of Example 3.

[9] = target: T1, extracellular domain of human CD73 …; test: ForteBio OCTET R2 (the filing calls it SPR); antibody on Protein A sensor, CD73-ECD in solution; traces labelled 100, 50, 25, 12.5, 6.25
Protocol: Surface plasmon resonance (SPR) assay: Protein A sensor was used to immobilize the antibodies, with an immobilization height of about 1.5 nM. […] Affinity detection: equilibrium for 60 s, binding for 180 s, dissociation for 180 s, at a detection temperature of 25° C. Kinetic characterization analysis was performed using the ForteBio OCTET R2 system.

[10] = target: T2, CD73 on the surface of human cells; test: flow cytometry on MDA-MB-231 cells
Protocol: as §2

- Top (%) [1]: 2.28
- EC50, reversal of the AMP inhibition of human T lymphocyte proliferation [2]: 0.0008 µg/mL
- IC50, inhibition of AMP hydrolysis by CD73 on MDA-MB-231 cells [2]: 0.088 µg/mL
- IC50, inhibition of AMP hydrolysis by recombinant human CD73 enzyme (CellTiter-Glo) [3]: 0.00947 µg/mL
- Max MFI [4]: 191000 MFI
- EC50 [5]: 0.068 µg/mL
- EC50 [6]: 0.00872 µg/mL
- ELISA reading (not named on the sheet) [7]: 4.23
- ELISA reading (not named on the sheet) [8]: 4.33
- koff [9]: 0.000318 s⁻¹
- kon [9]: 385000 M⁻¹ s⁻¹
- EC50 [10]: 0.037 µg/mL
B1: chimeric nanobody 5-E11 (Fc fusion)
VHH: ALQLVESGGGLVQPGGSLRLSCEVSGFTLDYYNIGWFRQAPGKEREGVSCSSNSGGSTYYADSVKGRFTISRDNAKNTVYLQMNSLKPEDTGVYYCAAYRGWHPSLDARVYDYWGQGTEVTVSS
notes: Human-alpaca chimeric antibody (VHH on hIgG1 Fc); Only the VHH is tied to the tested molecule; also called original antibody 5-E11

- Top (%) [1]: 2
- EC50, reversal of the AMP inhibition of human T lymphocyte proliferation [2]: 0.0012 µg/mL
- IC50, inhibition of AMP hydrolysis by CD73 on MDA-MB-231 cells [2]: 0.083 µg/mL
- IC50, inhibition of AMP hydrolysis by recombinant human CD73 enzyme (CellTiter-Glo) [3]: 0.00466 µg/mL
- Max MFI [4]: 206000 MFI
- EC50 [5]: 0.078 µg/mL
- EC50 [6]: 0.00303 µg/mL
- koff [9]: 0.000209 s⁻¹
- kon [9]: 263000 M⁻¹ s⁻¹
- EC50 [10]: 0.037 µg/mL
B2: chimeric nanobody 4-B02 (Fc fusion)
VHH: EVQLVESGGGLVQPGGSLRLSCAASGFPLDYYSIGWFRQAPGKEREGVSCIGSSDGSTYYADSVKGRFTISRDNAENTVWLQMNSLKPEDTAVYYCAALKYYYCSGHEAIYDYWGQGTQVTVSG
notes: Human-alpaca chimeric antibody

- Top (%) [1]: 1.79
- EC50, reversal of the AMP inhibition of human T lymphocyte proliferation [2]: 0.0247 µg/mL
- IC50, inhibition of AMP hydrolysis by CD73 on MDA-MB-231 cells [2]: 0.483 µg/mL
- IC50, inhibition of AMP hydrolysis by recombinant human CD73 enzyme (CellTiter-Glo) [3]: 0.0382 µg/mL
- IC50, inhibition of the catalytic function of recombinant human CD73 enzyme [3]: 0.0363 µg/mL
- Max MFI [4]: 200000 MFI
- EC50 [6]: 0.0135 µg/mL
- koff [9]: 0.000445 s⁻¹
- kon [9]: 223000 M⁻¹ s⁻¹
- EC50 [10]: 0.12 µg/mL
B3: chimeric nanobody 3-D7 (Fc fusion)
VHH: QRQLVESGGGLVQPGGSLRLSCAASGFLLDYYVIGWFRQAPGKEREGVSCISGSDRSTYYADSVKGRFTISRDNAKNTVYLQMNSLKPEDTAVYFCAADPSPVTVQAMCLPRFPVPYWGQGTQVTVST
notes: Human-alpaca chimeric antibody (VHH on hIgG1 Fc); Only the VHH is tied to the tested molecule; 37-39 exist for 3-D7-FC1/FC2/FC3; also called original antibody 3-D7

- Top (%) [1]: 2.08
- EC50, reversal of the AMP inhibition of human T lymphocyte proliferation [2]: 0.0025 µg/mL
- IC50, inhibition of AMP hydrolysis by CD73 on MDA-MB-231 cells [2]: 0.093 µg/mL
- IC50, inhibition of AMP hydrolysis by recombinant human CD73 enzyme (CellTiter-Glo) [3]: 0.00563 µg/mL
- Max MFI [4]: 220000 MFI
- EC50 [5]: 0.08 µg/mL
- EC50 [6]: 0.00267 µg/mL
- koff [9]: 0.000277 s⁻¹
- kon [9]: 301000 M⁻¹ s⁻¹
- EC50 [10]: 0.059 µg/mL
B4: chimeric nanobody 4-D04 (Fc fusion)
VHH: QLQLVESGGGLVQPGGSLRLSCAASGFTLDYYNIGWFRQAPGKEREGVSCISSSEGSTYYADSVKGRFTISRDNAKNTVYLQMNSLKPEDTAVYYCAADRYYYCSLHVSQYDYWGQGTLVTVSS
notes: as for B2
